The source of these data is US20150266974A1 (RINAT NEUROSCIENCE, published 2015).

Test [1] has as its target T1, mouse PCSK9 (mouse, UniProt Q80W65 35-694, limits assumed).
T1 construct: also called mPCSK9; msPCK9
The experiment in a line: SPR Biacore 3000, captured IgG, mPCSK9 injected, pH 5.5. The source says: (§1) These antibodies were expressed and purified for determination of their KD at 7.4 and their KD ratio of pH5.5/pH 7.4, as measured on a surface plasmon resonance Biacore 3000 biosensor equipped with a research-grade sensor chip using HBS-EP running buffer (Biacore AB, Uppsala, Sweden—now GE Healthcare). Rabbit polyclonal anti-Ms IgGs were amine-coupled at saturating levels onto the chip using a standard N-hydroxysuccinimide/ethyldimethylaminopropyl carbodiimide (NHS/EDC) chemistry. The buffer was switched to HBS-EP+1 mg/mL BSA+1 mg/mL CM-dextran. Full-length PCSK9 IgGs were diluted to about 15 μg/mL and captured for 1 min at 5 μL/min to give levels of about 500 RU per flow cell, leaving one blank to serve as a reference channel. […] Dissociation was monitored for 5 min. The chip was regenerated after the last injection of each titration with two 30 sec pulses of 100 mM phosphoric acid. Buffer cycles provided blanks for double-referencing the data, which were then fit globally to a simple binding model using Biaevaluation software v.4.1. Affinities were deduced from the quotient of the kinetic rate constants (KD=koff/kₒₙ).
(In SPR one partner is held on a chip, and binding of the other changes the refractive index at the surface.)

In test [2] the target is T1, mouse PCSK9. The experiment in a line: SPR Biacore 3000, captured IgG, mPCSK9 injected, pH 7.4.
Description: as §1

The target of test [3] is T2, human PCSK9 (human, UniProt Q8NBP7 31-692, limits assumed).
T2 construct: also called hPCSK9; huPCSK9
T2 sequence (Q8NBP7 31-692 limits assumed): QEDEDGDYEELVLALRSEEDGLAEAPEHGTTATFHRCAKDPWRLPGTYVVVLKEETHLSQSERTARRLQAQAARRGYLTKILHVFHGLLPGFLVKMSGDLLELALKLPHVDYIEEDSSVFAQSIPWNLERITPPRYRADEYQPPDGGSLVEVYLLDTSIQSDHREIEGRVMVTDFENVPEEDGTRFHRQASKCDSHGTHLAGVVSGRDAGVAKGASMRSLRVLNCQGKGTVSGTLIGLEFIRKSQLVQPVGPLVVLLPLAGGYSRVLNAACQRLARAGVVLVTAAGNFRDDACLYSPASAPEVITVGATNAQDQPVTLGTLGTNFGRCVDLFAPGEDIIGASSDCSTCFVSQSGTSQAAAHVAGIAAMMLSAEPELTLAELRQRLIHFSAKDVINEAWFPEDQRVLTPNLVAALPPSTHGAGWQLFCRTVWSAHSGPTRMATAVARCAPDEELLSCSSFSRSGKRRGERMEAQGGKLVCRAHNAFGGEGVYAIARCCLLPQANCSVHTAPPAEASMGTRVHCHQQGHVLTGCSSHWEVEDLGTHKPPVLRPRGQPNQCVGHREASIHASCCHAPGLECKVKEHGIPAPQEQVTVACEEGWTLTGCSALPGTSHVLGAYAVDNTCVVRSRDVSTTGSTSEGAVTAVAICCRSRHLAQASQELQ
The experiment in a line: SPR Biacore 3000, captured IgG, hPCSK9 injected, pH 5.5.
Description: as §1

Test [4] has as its target T2, human PCSK9. The experiment in a line: SPR Biacore 3000, captured IgG, hPCSK9 injected, pH 7.4.
Description: as §1

The target of test [5] is T2, human PCSK9. The experiment in a line: SPR Biacore 3000, KD at pH 5.5 over KD at pH 7.4.
Description: as §1

Test [6] has as its target T1, mouse PCSK9. In words: SPR Biacore 3000, KD at pH 5.5 over KD at pH 7.4.
Description: as §1

Where a chain is given by its changes, count along the chain named.

T1 sequence (Q80W65 35-694 limits assumed): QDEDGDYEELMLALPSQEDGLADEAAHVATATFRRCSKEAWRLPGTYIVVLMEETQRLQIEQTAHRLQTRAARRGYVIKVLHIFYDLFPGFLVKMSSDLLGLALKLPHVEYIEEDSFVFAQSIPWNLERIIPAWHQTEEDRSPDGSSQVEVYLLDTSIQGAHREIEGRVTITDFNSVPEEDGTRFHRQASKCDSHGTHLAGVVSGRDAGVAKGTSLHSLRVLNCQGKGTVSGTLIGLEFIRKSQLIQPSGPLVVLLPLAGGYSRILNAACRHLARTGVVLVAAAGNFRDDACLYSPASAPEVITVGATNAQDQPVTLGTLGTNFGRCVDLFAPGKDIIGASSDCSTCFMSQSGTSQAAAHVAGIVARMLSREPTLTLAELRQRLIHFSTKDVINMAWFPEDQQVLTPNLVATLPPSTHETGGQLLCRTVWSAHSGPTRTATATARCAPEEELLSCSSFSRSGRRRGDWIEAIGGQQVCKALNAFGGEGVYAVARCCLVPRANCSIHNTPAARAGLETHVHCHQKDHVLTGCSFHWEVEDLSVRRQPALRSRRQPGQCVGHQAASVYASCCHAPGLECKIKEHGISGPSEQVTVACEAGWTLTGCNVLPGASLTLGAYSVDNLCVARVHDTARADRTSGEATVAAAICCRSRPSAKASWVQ

B1: 5L1721H23_6L3H3 (antibody, V domains shown)
VH: QVQLVQSGAEVKKPGASVKVSCKASGYTFTSYYMHWVRQAPGQGLEWMGEIHPSGGRTNYNEKFKSRVTMTRDTSTSTVYMELSSLRSEDTAVYYCARERPLYASDLWGQGTTVTVSS
VL: DIQMTQSPSSLSASVGDRVTITCKASQDVHTAVAWYQQKPGKAPKLLIYHASYRYTGVPSRFSGSGSGTDFTFTISSLQPEDIATYYCQQRYSLWRTFGQGTKLEIK
notes: Tested as full-length IgG; also called heavy UC-H5H23-6H3, light UC-H5L1721-6L3
One may read the Kd as the equilibrium constant for the complex coming apart. Low readings indicate higher affinity, high ones lower affinity. For orientation: koff means the first-order rate constant of dissociation. High values mean fast dissociation, low ones slow dissociation. Broadly, the kon is the second-order rate constant of association. A higher kon goes with faster complex formation. Take B1: in the test with mouse PCSK9 [1], the affinity, expressed as Kd, was 117 nM; the off-rate constant (koff) turned out to be 0.0187 s⁻¹; the kon came to 160000 M⁻¹ s⁻¹. For the same molecule, in the test with mouse PCSK9 [2], the affinity, expressed as Kd, was 8.1 nM; the koff amounted to 0.000516 s⁻¹; the kon came out at 63700 M⁻¹ s⁻¹.

B2: 6L21H2335 (antibody, V domains shown)
VH: B1 VH with S54F, Y103H
VL: B1 VL with K24R, D28G, V29I, H30S, T31S, V33L
For B2, the Kd with mouse PCSK9 [1] was 451 nM; in the test with mouse PCSK9 [2] it was 191 nM; with human PCSK9 [3] it was 363 nM; in the test with human PCSK9 [4], 126 nM. Also, the koff with mouse PCSK9 [1] turned out to be 0.237 s⁻¹; in the test with mouse PCSK9 [2], 0.0172 s⁻¹; with human PCSK9 [3], 0.238 s⁻¹; with human PCSK9 [4], 0.00733 s⁻¹. The kon with mouse PCSK9 [1] stood at 526000 M⁻¹ s⁻¹; with mouse PCSK9 [2] it was 89900 M⁻¹ s⁻¹; in the test with human PCSK9 [3] it was 655000 M⁻¹ s⁻¹; with human PCSK9 [4] it was 58100 M⁻¹ s⁻¹. Further, the “KD ratio pH 5.5/7.4” value stood at 2.9 in the test with human PCSK9 [5] and 2.4 in the test with mouse PCSK9 [6].

B3: 5L1724H23_6L3 (antibody, V domains shown)
VH: B1 VH with S105M, L107Y
VL: B1 VL with H50S, Y53H
notes: Only CDRs printed; Full-length IgG
For the molecule B3, the Kd with mouse PCSK9 [1] was determined as 756 nM; in the test with mouse PCSK9 [2], 41 nM; in the test with human PCSK9 [3], 540 nM; with human PCSK9 [4], 22 nM. Moreover, the koff turned out to be 0.121 s⁻¹ with mouse PCSK9 [1], 0.00218 s⁻¹ in the test with mouse PCSK9 [2], 0.0407 s⁻¹ with human PCSK9 [3] and 0.00079 s⁻¹ with human PCSK9 [4]. In addition, the kon was found to be 160000 M⁻¹ s⁻¹ with mouse PCSK9 [1], 53100 M⁻¹ s⁻¹ with mouse PCSK9 [2], 75400 M⁻¹ s⁻¹ in the test with human PCSK9 [3] and 35900 M⁻¹ s⁻¹ in the test with human PCSK9 [4]. In addition, the entries for the “KD ratio pH 5.5/7.4” value with human PCSK9 [5] and with mouse PCSK9 [6] were 24.5 and 18.4, respectively.

B4: 5L1724H23_6L3H3 (antibody, V domains shown)
VH: B1 VH
VL: B1 VL with H50S, Y53H
notes: as for B3
As to B4, the Kd in the test with mouse PCSK9 [1] is 125 nM; with mouse PCSK9 [2], 13 nM; with human PCSK9 [3], 83 nM; with human PCSK9 [4], 15 nM. In addition, the koff with mouse PCSK9 [1] is 0.0263 s⁻¹; with mouse PCSK9 [2], 0.000827 s⁻¹; with human PCSK9 [3], 0.00789 s⁻¹; with human PCSK9 [4] it was 0.000342 s⁻¹. Further, the kon with mouse PCSK9 [1] came to 211000 M⁻¹ s⁻¹; with mouse PCSK9 [2] it was 63100 M⁻¹ s⁻¹; in the test with human PCSK9 [3] it was 95500 M⁻¹ s⁻¹; with human PCSK9 [4] it was 22300 M⁻¹ s⁻¹. In addition, the “KD ratio pH 5.5/7.4” value in the test with human PCSK9 [5] worked out at 5.5; with mouse PCSK9 [6], 9.6.

B5: 5L1721H23_6L3 (antibody, V domains shown)
VH: B1 VH with S105M, L107Y
VL: B1 VL
notes: Tested as full-length IgG; also called heavy UC-H5H23, light UC-H5L1721-6L3
Turning to B5, the equilibrium dissociation constant (Kd) was 408 nM in the test with mouse PCSK9 [1], 14 nM in the test with mouse PCSK9 [2], 257 nM in the test with human PCSK9 [3] and 6.9 nM with human PCSK9 [4]. Also, the koff in the test with mouse PCSK9 [1] was found to be 0.0428 s⁻¹; in the test with mouse PCSK9 [2], 0.000676 s⁻¹; with human PCSK9 [3], 0.0166 s⁻¹; with human PCSK9 [4], 0.000214 s⁻¹. Also, the kon was 105000 M⁻¹ s⁻¹ in the test with mouse PCSK9 [1], 47500 M⁻¹ s⁻¹ with mouse PCSK9 [2], 64500 M⁻¹ s⁻¹ with human PCSK9 [3] and 30900 M⁻¹ s⁻¹ with human PCSK9 [4]. For the same molecule, the “KD ratio pH 5.5/7.4” value is 37.2 with human PCSK9 [5] and 29.1 with mouse PCSK9 [6].

B6: 5L1721H23 (antibody, V domains shown)
VH: B1 VH with S105M, L107Y
VL: B1 VL with L94T, W95P
notes: Triple histidine mutant of h5A10; Only CDRs printed; Full-length IgG
In the case of B6, the Kd with mouse PCSK9 [1] worked out at 576 nM; with mouse PCSK9 [2] it was 23 nM; in the test with human PCSK9 [3], 144 nM; with human PCSK9 [4] it was 13 nM. Also, the koff stood at 0.0588 s⁻¹ with mouse PCSK9 [1], 0.00141 s⁻¹ with mouse PCSK9 [2], 0.0179 s⁻¹ with human PCSK9 [3] and 0.000399 s⁻¹ with human PCSK9 [4]. Further, the kon was 102000 M⁻¹ s⁻¹ with mouse PCSK9 [1], 61200 M⁻¹ s⁻¹ with mouse PCSK9 [2], 124000 M⁻¹ s⁻¹ with human PCSK9 [3] and 31700 M⁻¹ s⁻¹ in the test with human PCSK9 [4]. In addition, the results for the “KD ratio pH 5.5/7.4” value in the test with human PCSK9 [5] and with mouse PCSK9 [6] were 11.1 and 25, respectively.

B7: 6L1721H23 (antibody, V domains shown)
VH: B1 VH with S54F
VL: B1 VL with K24R, D28G, V29I, T31S, V33L
notes: L1L3-based mutant; Full-length IgG
For B7, the Kd in the test with mouse PCSK9 [1] came out at 36 nM; with mouse PCSK9 [2], 7.2 nM; in the test with human PCSK9 [3] it was 24 nM; with human PCSK9 [4], 4 nM. Also, the off-rate constant (koff) is 0.00729 s⁻¹ in the test with mouse PCSK9 [1], 0.000469 s⁻¹ with mouse PCSK9 [2], 0.00261 s⁻¹ with human PCSK9 [3] and 0.000201 s⁻¹ with human PCSK9 [4]. Moreover, the kon worked out at 204000 M⁻¹ s⁻¹ with mouse PCSK9 [1], 64800 M⁻¹ s⁻¹ with mouse PCSK9 [2], 110000 M⁻¹ s⁻¹ in the test with human PCSK9 [3] and 50200 M⁻¹ s⁻¹ with human PCSK9 [4]. The “KD ratio pH 5.5/7.4” value with human PCSK9 [5] was determined as 6; with mouse PCSK9 [6], 5.

B8: 5L1724H35 (antibody, V domains shown)
VH: B1 VH with H52N, Y103H, S105M, L107Y
VL: B1 VL with H50S, Y53H, L94T, W95P
notes: as for B6
For the molecule B8, in the test with mouse PCSK9 [2], binding was put at a Kd of 35 nM, the off-rate (koff) was 0.00153 s⁻¹ and the kon turned out to be 44300 M⁻¹ s⁻¹.

B9: 5L1721H23_6H3 (antibody, V domains shown)
VH: B1 VH
VL: B1 VL with L94T, W95P
notes: as for B3
With B9, the Kd with mouse PCSK9 [1] stood at 111 nM; with mouse PCSK9 [2] it was 8 nM; in the test with human PCSK9 [3], 55 nM; with human PCSK9 [4], 7.3 nM. Further, the koff in the test with mouse PCSK9 [1] came out at 0.0341 s⁻¹; in the test with mouse PCSK9 [2], 0.000899 s⁻¹; with human PCSK9 [3], 0.00772 s⁻¹; with human PCSK9 [4] it was 0.000273 s⁻¹. Besides, the on-rate (kon) in the test with mouse PCSK9 [1] was determined as 307000 M⁻¹ s⁻¹; with mouse PCSK9 [2], 113000 M⁻¹ s⁻¹; with human PCSK9 [3], 141000 M⁻¹ s⁻¹; in the test with human PCSK9 [4], 37400 M⁻¹ s⁻¹. For the same molecule, the “KD ratio pH 5.5/7.4” value with human PCSK9 [5] stood at 7.5; in the test with mouse PCSK9 [6], 13.9.

B10: 6L1721 (antibody, V domains shown)
VH: B1 VH with H52S, S54F
VL: B1 VL with K24R, D28G, V29I, T31S, V33L
notes: L1L3-based mutant; Tested as full-length IgG
On to B10, for which the Kd with mouse PCSK9 [1] is 5.2 nM; in the test with mouse PCSK9 [2], 2.6 nM; with human PCSK9 [3], 5.1 nM; with human PCSK9 [4] it was 2.2 nM. The koff with mouse PCSK9 [1] is 0.00177 s⁻¹; with mouse PCSK9 [2] it was 0.000228 s⁻¹; in the test with human PCSK9 [3], 0.00084 s⁻¹; with human PCSK9 [4], 7.08e-05 s⁻¹. In addition, the kon is 338000 M⁻¹ s⁻¹ with mouse PCSK9 [1], 88000 M⁻¹ s⁻¹ with mouse PCSK9 [2], 166000 M⁻¹ s⁻¹ with human PCSK9 [3] and 32900 M⁻¹ s⁻¹ with human PCSK9 [4]. Moreover, the entries for the “KD ratio pH 5.5/7.4” value in the test with human PCSK9 [5] and in the test with mouse PCSK9 [6] were 2.3 and 2, respectively.

B11: 5L1724H23 (antibody, V domains shown)
VH: B1 VH with S105M, L107Y
VL: B1 VL with H50S, Y53H, L94T, W95P
notes: as for B6
In the test with mouse PCSK9 [1], B11 showed a Kd of 74 nM, a koff of 0.0202 s⁻¹ and a kon of 273000 M⁻¹ s⁻¹. In the test with human PCSK9 [3], this molecule displayed an equilibrium dissociation constant (Kd) of 39 nM, a koff of 0.00793 s⁻¹ and a kon of 203000 M⁻¹ s⁻¹.
